Among the data in PMC10139187, “Natural Isoforms of Listeria monocytogenes Virulence Factor Inlb Differ in c-Met Binding Efficiency and Differently Affect Uptake and Survival Listeria in Macrophage †” (International Journal of Molecular Sciences, 2023) are Kd values, retold here.

Sequences and labels used below:
B1: gC1qR (human) (receptor)
chain: LHTDGDKAFVDFLSDEIKEERKIQKHKTLPKMSGGWELELNGTEAKLVRKVAGEKITVTFNINNSIPPTFDGEEEPSQGQKVEEQEPELTSTPNFVVEVIKNDDGKKALVLDCHYPEDEVGQEDEAESDIFSIREVSFQSTGESEWKDTNYTLNTDSLDWALYDHLMDFLADRGVDNTFADELVELSTALEHQEYITFLEDLKSFVKSQ
notes: gC1qR (receptor of the globular heads of C1q), human; the catalogue number may tell them; also called human gC1qR; source: bought: Invitrogen (#11874H08E25)
B2: idInlBCC9, internalin domain (receptor-binding domain) of InlB, isoform of clonal complex CC9 (lineage II) (domain or fragment)
chain: AKVQAETITVPTPIKQIFSDDAFAETIKDNLKKKSVTDAVTQNELNSIDQIIANNSDIKSVQGIQYLPNVTKLFLNGNKLTDIKPLANLKNLGWLFLDENKVKDLSSLKDLKKLKSLSLEHNGISDINGLVHLPQLESLYLGNNKITDITVLSRLTKLDTLSLEDNQISDIVPLAGLTKLQNLYLSKNHISDLRALAGLKNLDVLELFSQECLNKPINHQSNLVVPNTVKNTDGSLVTPEIISDDGDYEKPNVKWHLPEFTNEVSFIFYQPVTIGKAKARFHGRVTQPLKE
modifications: stained with RED-tris-NTA (on the His tag)
notes: 321 aa long; also called idInlB-His-Tag; source: E. coli BL21, purified (HisTrap FF Crude column, dialysed against PBS)

Holding throughout (assay): MST; idInlB-His-Tag stained with RED-tris-NTA kept constant at 50 nM; unlabeled receptor in twofold dilutions from 0.076 nM to 2.5 uM; PBST (PBS with 0.05% Tween-20); Monolith NT.115, LED power 80%, MST power 40%; fitted to a 1:1 binding model; mean of three independent experiments
In experiment [1] the target is idInlBCC1, internalin domain (receptor-binding domain) of InlB, isoform of clonal complex CC1 (lineage I) (Listeria monocytogenes).
Experiment [2] has as its target idInlBCC7, internalin domain (receptor-binding domain) of InlB, isoform of clonal complex CC7 (lineage II) (Listeria monocytogenes).
Experiment [3] deals with B2. The note with it: both partners purified.
Experiment [4] has as its target T1, chimeric protein HGFR/Fc (c-Met extracellular domain as part of a soluble chimera protein) (human, UniProt P08581 25-932).
T1 construct: Hepatocyte growth factor receptor (c-Met, HGFR), human, extracellular domain; natural c-Met is cut into an alpha and a beta chain, written here as one chain; also called human c-Met; source: bought: Sigma-Aldrich (H0536)
The note with it: both partners purified.

T1 sequence (P08581 25-932, change not shown): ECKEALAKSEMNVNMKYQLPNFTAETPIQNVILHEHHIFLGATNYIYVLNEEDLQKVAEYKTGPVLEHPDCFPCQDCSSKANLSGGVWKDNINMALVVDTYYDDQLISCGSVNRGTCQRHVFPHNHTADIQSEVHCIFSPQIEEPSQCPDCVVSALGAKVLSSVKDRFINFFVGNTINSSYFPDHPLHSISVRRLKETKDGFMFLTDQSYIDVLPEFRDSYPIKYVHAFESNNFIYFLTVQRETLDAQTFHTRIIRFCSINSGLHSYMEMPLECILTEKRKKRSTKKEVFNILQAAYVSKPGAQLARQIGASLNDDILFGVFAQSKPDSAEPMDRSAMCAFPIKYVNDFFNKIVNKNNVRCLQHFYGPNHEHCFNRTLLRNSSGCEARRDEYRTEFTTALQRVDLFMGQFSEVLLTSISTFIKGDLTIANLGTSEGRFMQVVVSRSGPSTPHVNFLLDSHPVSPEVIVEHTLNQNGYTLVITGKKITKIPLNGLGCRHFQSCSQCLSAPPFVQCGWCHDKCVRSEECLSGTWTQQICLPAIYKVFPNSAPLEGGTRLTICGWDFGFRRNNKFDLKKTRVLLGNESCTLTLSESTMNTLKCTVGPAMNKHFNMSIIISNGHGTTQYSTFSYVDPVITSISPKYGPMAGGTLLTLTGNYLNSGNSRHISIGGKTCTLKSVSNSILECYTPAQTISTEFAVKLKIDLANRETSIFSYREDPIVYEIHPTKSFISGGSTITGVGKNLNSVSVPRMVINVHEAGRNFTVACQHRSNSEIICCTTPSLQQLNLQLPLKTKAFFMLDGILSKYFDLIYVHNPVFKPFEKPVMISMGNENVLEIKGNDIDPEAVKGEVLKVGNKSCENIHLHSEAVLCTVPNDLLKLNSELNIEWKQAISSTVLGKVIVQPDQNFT

Consider “chimeric protein HGFR/Fc (c-Met extracellular domain as part of a soluble chimera protein) (from UniProt P08581 25-932) (Fc fusion)”, for which the Kd turned out to be 7.4 nM in experiment [1] and 58.7 nM in experiment [2].
Regarding “gC1qR (human) (from UniProt Q07021 74-282) (receptor)”, the Kd in experiment [1] was found to be 7.4 nM; in experiment [2], 10.2 nM.
Turning to B1, the affinity in experiment [3], expressed as Kd, was 21.5 nM.
On to B2, for which the affinity in experiment [4], expressed as Kd, was 93.6 nM.

By Kd is commonly meant the free concentration of one partner at which half of the binding sites on the other are occupied at equilibrium, for simple one-to-one binding. Lower therefore signals tighter binding.
